Results as given in patent US20250002585A1.

Molecular target: human PD-L1 on PD-L1 aAPC/CHO-K1 cells (human) (UniProt Q9NZQ7)
Sequence (Q9NZQ7 19-290): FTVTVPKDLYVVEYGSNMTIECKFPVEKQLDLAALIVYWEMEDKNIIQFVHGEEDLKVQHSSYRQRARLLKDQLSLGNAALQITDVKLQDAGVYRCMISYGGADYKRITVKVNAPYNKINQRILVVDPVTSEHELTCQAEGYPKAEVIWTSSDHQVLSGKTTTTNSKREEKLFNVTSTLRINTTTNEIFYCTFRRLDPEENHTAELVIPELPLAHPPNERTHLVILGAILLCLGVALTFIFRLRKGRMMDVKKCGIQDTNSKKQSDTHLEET

Atezolizumab (antibody)
EC50 (read off the curve), fold induction, PD1/PD-L1 blockade cell bioassay: 0.5 nM
